Biological target: Human YKL-40 also known as Chitinase-3-like protein 1 (CHI3L1) (human) (UniProt P36222)
Assay: phage ELISA, plate coated with 0.5 ug purified YKL-40, anti-M13-HRP/TMB, well F2

UniProt P36222, sequence (P36222 22-383 limits assumed): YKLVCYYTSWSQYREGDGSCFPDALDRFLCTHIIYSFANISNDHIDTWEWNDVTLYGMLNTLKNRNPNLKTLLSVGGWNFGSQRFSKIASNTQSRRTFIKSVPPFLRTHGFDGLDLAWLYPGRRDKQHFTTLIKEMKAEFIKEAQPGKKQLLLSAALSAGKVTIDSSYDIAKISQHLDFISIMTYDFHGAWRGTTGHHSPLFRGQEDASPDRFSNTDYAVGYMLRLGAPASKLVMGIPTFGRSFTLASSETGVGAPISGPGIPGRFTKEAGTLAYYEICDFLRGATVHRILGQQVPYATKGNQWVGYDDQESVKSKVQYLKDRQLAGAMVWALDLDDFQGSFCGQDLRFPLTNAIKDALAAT

ELISA signal: 0.054
B1: 2B8 predator (VHH)
VHH: EVQLLESGGGLVQPGGSLRLSCAASGFRDSDEDMGWVRQAPGKGLEWVSSIYAPNGSTYYADSVKGRFTISRDNSKNTLYLQMNSLRAEDTAVYYCASNTYDAFDYWGQGTLVTVSS

From US20210347912A1
